Measured values as given in US20220184120A1 (MINERVA BIOTECHNOLOGIES, published 2022).
Substitutions are numbered along the chain they refer to.

B1: B2 mouse monoclonal antibody (antibody, V domains shown)
VH: EVVLVESGGGLVEPGGSLKLSCVASGFAFSTFAMSWIRQTPEKRLEWVAAISNGGGYTYYPDTLKGRFSISRDNAKNTLYLQMSSLRSEDTAVYYCARRYYDLYFDLWGRGTSLIVSS
VL: DILMTQTPLSLPVSLGDQASISCRSSQNIVHSNGNTYLEWYLQKPGQSPKLLIYKVSNRFSGVPDRFSGSGSGTDFTLKISRVEAEDLGVYYCFQDSHVPLTFGAGTRLELK
notes: raised against PSMGFR; built from framework and CDR entries
B2: B12 mouse monoclonal antibody (antibody, V domains shown)
VH: QAQLKESGPGLVAPSQSLSITCTVSGFSLTSYGVHWVRQPPGKGLEWLGVIWPGGSTNYNSTLMSRMRIIKDNSKSQVFLKMNSLQIDDTAMYYCARDRTPRVGAWFAYWGQGTLVTVSA
VL: IIVLTQSPASLAVSLGQRATISCRASESVATYGNNFMQWYQQKPGQPPKLLIYLASTLDSGVPARFSGSGSRTDFTLTIDPVEADDAATYYCQQNNEDPPTFGGGTKLEIK
notes: as for B1
B3: B9 mouse monoclonal antibody (antibody, V domains shown)
VH: EVQVVESGGDLVKPGGSLKLSCAASGFTFSRYGMSWVRQTPDKRLEWVATISSGGTYIYYPDSVKGRFTISRDNAKNTLYLQMSSLKSEDTAMYYCARDNYGSSYDYAMDYWGQGTSVTVSS
VL: QIVLTQSPAIMSASPGEEVTLTCSASSSVSYMHWFQQRPGTSPKLWIYTTSNLASGVPARFSGSGSGTSYSLTISRMEAEDAATYYCQQRSSYPFTFGSGTKLEIK
notes: as for B1
B4: 31A1 mouse monoclonal antibody (antibody, V domains shown)
VH: QVQLQQSGAELAKPGASVKMSCKASGYTFTSYWMHWVKQRPGQGLEWIGYINPSTGYTEYNQKFKDKATLTADKSSSTAYMQLSSLTSEDSAVYYCARAYIDYWGQGTTLTVSS
VL: B1 VL with I2V, I21F, N28S, S81N, D96V, V99F, L101W, A105G, R108K, L111I
notes: raised against N+20/C-27; also called N+20/C-27 antibody 31A1
B5: 29H1 mouse monoclonal antibody (antibody, V domains shown)
VH: EVKLEESGGGLVQPGGSMKLSCAASGFTFSDAWMDWVRQSPEKGLEWVAEIRSKATNHATYYAESVKGRFTISRDDSKSSVYLQMNSLRAEDTGIYYCTPLLYGFAYWGQGTLVTVSA
VL: DVVMTQTPLSLPVSLGDQASISCRSGQSLVHSNGHTYLHWYLQKPGQSPRLLIYKVSNRFSGVPDRFSGSGSRADFTLKISRVEAEDLGVYFCSQTTHVPWTFGGGTKLEIK
notes: raised against N+20/C-27; also called N+20/C-27 antibody 29H1
B6: 32C1 mouse monoclonal antibody (antibody, V domains shown)
VH: EVKLEESGGGLVQSGGSMKLSCVASGFTFSNYWMNWVRQSPEKGLEWVAEIRLKSNNYAIHYAESVKGRFTISRDDSKSSVYLQMNNLRAEDTGIYYCTRVPGLDAYWGQGTLVTVSA
VL: B5 VL with G26S, H35N, R50K, R73G, A74T, R82S, T96I, W101Y, K108N
notes: raised against N+20/C-27; also called N+20/C-27 antibody 32C1
B7: 5C6F3 mouse monoclonal antibody (antibody, V domains shown)
VH: EVMLVESGGGLVKPGGSLKLSCAASGFTFSTYAMSWVRQTPEKRLEWVAAISNGGGYTYYPDSLKGRFTISRDNAKNTLYLQMSSLRSEDTATYYCARRYYDHYFDYWGQGTALTVSS
VL: B1 VL with I2V, N28T, R108K
notes: raised against PSMGFR; also called MN-5C6F3; anti-PSMGFR antibody 5C6F3
B8: 3C2B1 mouse monoclonal antibody (antibody, V domains shown)
VH: EVMLVESGGGLVKPGGSLKLSCAASGITFSTYTMSWVRQTPEKRLEWVATISTGGDKTYYSDSVKGRFTISRDNAKNNLYLQMSSLRSEDTALYYCARGTTAMYYYAMDYWGQGTSVTVSS
VL: DIVLTQSPASLAVSLGQRATISCRASKSISTSDYNYIHWYQQKPGQPPKLLIYLASNLESGVPARFSGSGSGTDFTLNIHPVEEEDAATYYCQHSRELPLTFGAGTKLELK
notes: raised against PSMGFR; also called MN-3C2B1; anti-PSMGFR antibody 3C2B1
B9: 25E6 mouse monoclonal antibody (antibody, V domains shown)
VH: EVQLVESGGDLVKPGGSLKLSCAASGFTFSSYGMSWVRQTPDKRLEWVATISNGGRHTFYPDSVKGRFTISRDNAKNTLYLQMSSLKSEDTAMYLCVRQTGTEGWFAYWGQGTLVTVSA
VL: not shown
notes: raised against PSMGFR; also called MN-25E6; anti-PSMGFR antibody 25E6
B10: 28F9 mouse monoclonal antibody (antibody, V domains shown)
VH: QVQLQQPGAELVQPGASVKLSCKASGYTFTGYFLYWVKQRPGHGLEWIGGIHPSNGDTDFNEKFKNKATLTVDISSSTAYMQLSSLTSEDSAVYYCTLLIGVYWGQGTTLTVSS
VL: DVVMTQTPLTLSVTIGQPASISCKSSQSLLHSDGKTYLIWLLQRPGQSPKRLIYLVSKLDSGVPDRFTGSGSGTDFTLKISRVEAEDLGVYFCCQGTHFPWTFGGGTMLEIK
notes: raised against PSMGFR; also called MN-28F9; anti-PSMGFR antibody 28F9
B11: 18G12 mouse monoclonal antibody (antibody, V domains shown)
VH: B10 VH with P7S, Q13K, H43Q, H52N, S54D, D57G, T58I, K65R, I74K, V102N
VL: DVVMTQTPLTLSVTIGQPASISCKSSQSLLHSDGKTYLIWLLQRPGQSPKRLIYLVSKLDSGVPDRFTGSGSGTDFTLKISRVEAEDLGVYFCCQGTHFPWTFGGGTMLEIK
notes: raised against PSMGFR; also called MN-18G12; anti-PSMGFR antibody 18G12
B12: PSMGFR peptide (Primary Sequence of the MUC1 Growth Factor Receptor) (peptide)
peptide: GTINVHDVETQFNQYKTEAASRYNLTISDVSVSDVPFPFSAQSGA
notes: synthetic peptide immobilised on ELISA plates; also called MUC1* peptide; MUC1* extra cellular domain peptide
B13: B7 mouse monoclonal antibody (antibody, V domains shown)
VH: B3 VH
VL: B1 VL with I2V, N28T, R108K
notes: as for B1
B14: H11 mouse monoclonal antibody (antibody, V domains shown)
VH: B1 VH with S69T, R110Q
VL: B1 VL
notes: as for B1
B15: 8C7F3 mouse monoclonal antibody (antibody, V domains shown)
VH: B7 VH
VL: B2 VL
notes: as for B1

Target: B12
Assay: ELISA (FIG. 201A)

Binder | binding result
B1 | binds
B2 | binds
B3 | binds

Target: B12
Assay: ELISA (FIG. 65)

Binder | binding result
B4 | binds
B5 | binds
B6 | binds

Target: T1, N-10 peptide (PSMGFR minus 10 amino acids from the N-terminus)
T1 construct: also called N-10 PSMGFR; PSMGFR N-10
T1 peptide: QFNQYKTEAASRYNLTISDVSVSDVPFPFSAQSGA
Assay: ELISA (FIG. 201B)
Experimental: (§1) FIG. 201A-201C show graphs of ELISA assays to determine the binding of another set of antibodies generated by immunizing animals with the PSMGFR peptide. […] F3, B12, B2, B7, B9, 8C7F3 and H11 all bound to the PSMGFR peptide and to the N−10 peptide.
(§2) This same ELISA assay was performed on the antibodies of the invention (FIG. 64-66 and FIG. 201). Note that only 20A10 exactly matches the binding profile of MNC2 and MNE6. 25E6, 28F9 and 18G12 are all able to bind to the N−10 peptide. 18B4 is the only antibody raised against the PSMGFR peptide that requires the 10 most N-terminal amino acids of the peptide. The color of the bars for each antibody in the ELISA graph are color coded to match the deductive cognate sequence, or a portion thereof, of that antibody. In addition, another set of antibodies was assayed by ELISA (FIG. 201). Of this set, B12, B2, B7, B9, 8C7F3, and H11 bound to the PSMGFR peptide, bound to the N−10 peptide, but not to the C−10 peptide (FIG. 201). Although these antibodies were raised against the N+20/C−27 peptide, all but one, 45C11, still bind to the PSMGFR peptide, albeit at the N-terminal portion of PSMGFR.

Binder | binding result
B1 | binds
B2 | binds
B3 | binds

Target: T1, N-10 peptide (PSMGFR minus 10 amino …)
Assay: ELISA

Binder | binding result
B4 | no binding
B7 | binds
B5 | no binding
B6 | no binding
B8 | binds

Target: B12
Assay: ELISA

Binder | binding result
B7 | binds
B9 | binds
B10 | binds
B11 | binds
B8 | binds

Target: T2, C-10 peptide (PSMGFR minus 10 amino acids from the C-terminus)
T2 construct: also called C-10 PSMGFR; PSMGFR C-10
T2 peptide: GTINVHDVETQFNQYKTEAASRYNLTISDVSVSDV
Assay: ELISA

Binder | binding result
B4 | binds
B5 | binds
B6 | binds
B10 | binds
B11 | binds
B8 | no binding

Target: T3, N+20/C-27 peptide (20 amino acids added onto the N-terminus and 27 deleted from the C-terminus of PSMGFR)
T3 peptide: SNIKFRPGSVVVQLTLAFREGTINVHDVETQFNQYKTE
Assay: ELISA

Binder | binding result
B4 | binds
B5 | binds
B6 | binds

target: T4, NME7-AB (recombinant) (Homo sapiens (Human), UniProt Q9Y5B8 92-376); assay: ELISA (FIG. 2A)
T4 construct: the entry ends in a His tag; also called NM23-H7
T4 sequence: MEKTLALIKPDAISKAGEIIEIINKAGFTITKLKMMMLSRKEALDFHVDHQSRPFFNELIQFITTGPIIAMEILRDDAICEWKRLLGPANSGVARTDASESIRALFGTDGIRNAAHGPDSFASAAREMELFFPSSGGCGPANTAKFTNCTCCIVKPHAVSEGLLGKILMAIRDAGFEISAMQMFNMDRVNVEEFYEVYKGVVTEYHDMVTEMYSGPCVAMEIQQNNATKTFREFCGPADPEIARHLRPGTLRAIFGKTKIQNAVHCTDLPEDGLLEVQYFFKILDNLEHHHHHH
Experimental: FIGS. 2A-2I show results of ELISA assays. MUC1* peptides PSMGFR, PSMGFR minus 10 amino acids from the N-terminus aka N−10, or PSMGFR minus 10 amino acids from the C-terminus, aka C−10 are immobilized on the plate and the following are assayed for binding: NME7-AB (FIG. 2A), MN-C2 monoclonal antibody (FIG. 2B), MN-E6 monoclonal antibody (FIG. 2C), or dimeric NME1 (FIG. 2D). […] MUC1* peptides PSMGFR minus 10 amino acids from the N-terminus aka N−10, or PSMGFR minus 10 amino acids from the C-terminus, aka C−10, are immobilized on the plate and the following are assayed for binding: MN-C3 (FIG. 2E) and MN-C8 (FIG. 2F).

Binder | binding result
B12 | binds

Target: T5, N+9/C-9 peptide (9 amino acids added onto the N-terminus and 9 deleted from the C-terminus of PSMGFR)
T5 peptide: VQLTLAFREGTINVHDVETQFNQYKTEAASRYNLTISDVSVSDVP
Assay: ELISA (FIG. 64A)

Binder | binding result
B9 | binds
B10 | binds
B11 | binds

Target: T2, C-10 peptide (PSMGFR minus 10 amino …)
Assay: ELISA (FIG. 201C)
Experimental: as §1, §2

Binder | binding result
B1 | no binding
B13 | no binding
B14 | no binding
B2 | no binding
B15 | no binding
B3 | no binding

Target: T1, N-10 peptide (PSMGFR minus 10 amino …)
Assay: ELISA (FIG. 64)

Binder | binding result
B9 | binds
B10 | binds
B11 | binds
